Test results: patent US20250333486A1, “Anti-HSP90 alpha antibody and uses thereof” (NATIONAL HEALTH RESEARCH INSTITUTES, priority 2021, published 2025)

How the values were obtained:
PANC-1 cells [1] = assay: Transwell invasion assay, rHSP90α-induced PANC-1 invasion; type: cell-based, human; details: 15 μg/ml rHSP90α plus 10 μg/ml antibody
Procedure: In a 37° C. and 5% CO2 humidified incubator, cancer cells were subjected to serum starvation in 0.5% FBS-containing medium for 16 h, and then added […] After another 24 h, the treated cells were harvested as aliquots (1×10^5 cells per aliquot) in 0.5% FBS-containing culture medium, and then each aliquot was seeded into a top chamber of Transwell inserts pre-coated with 5-fold diluted Matrigel (BD Biosciences). Cells were allowed 16 h to invade through the Matrigel toward the bottom chambers containing culture medium plus 10% FBS. The filters of the Transwell inserts were then fixed and stained with Giemsa. Invasive cells on the lower side of filters were photographed using the Axiovert S100/AxioCam HR microscope system (Carl Zeiss, Oberkochen, Germany) and further quantified by the Image-Pro Plus software (Media Cybernetics, Inc., Silver Spring, MD, USA).

[2] = system: Panc 02 plus EndoMT cell grafts; assay: Therapeutic efficacy in desmoplastic mouse PDAC transplant model; type: in vivo; details: 5 mg/kg IV, 3 times at 7-day intervals from Day-20
Procedure: (§1) Mouse experiments were performed with the permission of the Institutional Animal Care and Use Committee of National Health Research Institutes (NHRI-IACUC-106031-A, 109022-M2-S02, and 109196-A). To establish a desmoplastic tumor transplant model, C57BL/6 mice at 12 weeks of age were subcutaneously inoculated with a mix of Panc 02 cells and EndoMT-derived CAFs (i.e. OPN-treated 3B-11 cells). See Fan C S, Chen L L, Hsu T A, et al. Endothelial-mesenchymal transition harnesses HSP90α-secreting M2-macrophages to exacerbate pancreatic ductal adenocarcinoma. J Hematol Oncol 2019;12:138; and Chua K V, Fan C S, Chen L L, Chen C C, Hsieh S C, Huang T S. Octyl gallate induces pancreatic ductal adenocarcinoma cell apoptosis and suppresses endothelial-mesenchymal transition-promoted M2-macrophages, HSP90α secretion, and tumor growth. Cells 2020;9(1):91. Sizes of developing tumors were superficially measured with a Vernier caliper, and tumor volumes were calculated with the formula ½×length×width^2. Real tumors were weighed when mice were sacrificed. To establish a desmoplastic tumor transplant model in humanized mice, NOD-SCID IL2R^null (ASID) mice transplanted with human hematopoietic stem cells (hHSC) were subcutaneously inoculated with a mix of PANC-1 cells and OPN-treated HUVECs. The employed hHSC-transplanted ASID mice were produced from the National Laboratory Animal Center (Taipei, Taiwan) and all contained human CD45^+ cell levels more than 38% of total lymphocytes. To establish an M2-macrophage-exacerbated mouse PDAC model, C57BL/6 mice were subcutaneously inoculated with a mix of Panc 02 cells and rHSP90α-treated BMDMs. Additionally, LSL-KrasG12D/Pdx1-Cre transgenic mice were adopted as a spontaneously PDAC-developing mouse model to evaluate the therapeutic efficacy of HH01 antibody. LSL-KrasG12D and Pdx1-Cre breeder mice were obtained from the Mouse Models of Human Cancers Consortium Repository of the National Cancer Institute (Frederick, Maryland, USA). LSL-KrasG12D mice were crossed with Pdx1-Cre mice to generate LSL-KrasG12D/Pdx1-Cre mice.
(§2) For assaying the HSP90α-binding activities of the prepared antibodies, 96-well plates were coated with 12.5 ng/ml of rHSP90α in the capture buffer (BioLegend, San Diego, CA, USA) by overnight incubation at 4° C. The coated plates were washed twice with PBST and then blocked with PBST plus 3% bovine serum albumin (BSA). […] The reactions were stopped by the addition of 0.5 M H2SO4, and OD450 values were measured by an Infinite M200 microplate reader (TECAN, Männedorf, Switzerland). Additionally, the immunoglobulin (IgG) isotype characterization of anti-HSP90α antibodies was performed by using the Mouse Ig Isotyping ELISA Ready-Set-Go!™ Kit (eBioscience™, Thermo Fisher Scientific, Waltham, MA, USA). […]

[3] = system: Panc 02 plus EndoMT cell grafts; assay: Prophylactic efficacy in desmoplastic mouse PDAC transplant model; type: in vivo; details: 5 mg/kg IV, 8 doses at 3-day intervals from Day-4
Procedure: as §1, §2

[4] = system: Panc 02 plus rHSP90α-treated BMDM cell grafts; assay: Therapeutic efficacy in M2-macrophage-exacerbated mouse PDAC model; type: in vivo
Procedure: as §1
For assaying the HSP90α-binding activities of the prepared antibodies, 96-well plates were coated with 12.5 ng/ml of rHSP90α in the capture buffer (BioLegend, San Diego, CA, USA) by overnight incubation at 4° C. The coated plates were washed twice with PBST and then blocked with PBST plus 3% bovine serum albumin (BSA). The prepared antibodies were applied and incubated 2 h at room temperature. After three washes with PBST, horseradish peroxidase-conjugated secondary antibody was added and incubated at 37° C. for another 1 h. After three washes, 0.3 mg/ml of 3,3′,5,5′-tetramethylbenzidine in 0.015% H2O2 was added into each well and incubated in the dark at room temperature for 10 min. The reactions were stopped by the addition of 0.5 M H2SO4, and OD450 values were measured by an Infinite M200 microplate reader (TECAN, Männedorf, Switzerland). Additionally, the immunoglobulin (IgG) isotype characterization of anti-HSP90α antibodies was performed by using the Mouse Ig Isotyping ELISA Ready-Set-Go!™ Kit (eBioscience™, Thermo Fisher Scientific, Waltham, MA, USA). The ELISA protocol was also used to assay the secreted HSP90α levels of mouse serum samples as described previously. See Chen J S, Hsu Y M, Chen C C, Chen L L, Lee C C, Huang T S. Secreted heat shock protein 90α induces colorectal cancer cell invasion through CD91/LRP-1 and NF-κB-mediated integrin αV expression. J Biol Chem 2010;285(33):25458-66.
Mouse tissue sections with a 4-μm thickness were deparaffinized by xylene and rehydrated in graded ethanol dilutions. Antigen retrieval was performed by heating the sections for 15 min in 10 mM of citrate buffer, pH 6.0, under high pressure. The endogenous peroxidase activity was blocked by 0.3% H2O2. Before staining, the sections were blocked 30 min with PBS plus 3% BSA at room temperature in a humidified chamber. […]

PANC-1 cells [5] = assay: Cell spheroid-forming assay, rHSP90α-induced PANC-1 spheroids; type: cell-based, human; details: 15 μg/ml rHSP90α plus 10 μg/ml antibody
Procedure: One thousand cancer cells were seeded onto each well of 24-well plates pre-coated with a 4-mm thick layer of 0.5% agarose. After incubation 24 h with serum-free medium at 37° C. plus a 5% CO2 humidified atmosphere, cells were added with PBS or 15 μg/ml of rHSP90α in the absence or presence of 10 μg/ml of control IgG or the tested anti-HSP90α antibody. The incubation was kept for 10-14 days with supplements of some fresh serum-free medium every 3 days. Finally, the cell spheroids characterized by tight, non-adherent, and >100 μm in diameter were photographed and counted under an Olympus IX 71 inverted microscope (Center Valley, PA, USA). The spheroid formation % was calculated by the formula: (number of cell spheroids/1000)×100%.

[6] = 5 mg/kg from Day-27, second dose after 7 days
[7] = immunohistofluorescent staining of tumor tissues

B1: HH01: humanized anti-HSP90α IgG1 antibody, mutant of Clone-2-chimera; VH SEQ ID NO: 12, VL SEQ ID NO: 17 (antibody, V domains shown)
VH: EVQLVESGGGLVQPGGSLRLSCAASGFTFKTYAMNWVRQAPGQGLEWVARIRSKSRNYATYYADSVKDRFTISRDDSKNQFYLQMNNLRTEDTAVYYCVVGGSGFDYWGQGTTLTVSS
VL: DVVMTQTPLSLPVSLGDQASISCRSSQSIVHSNGNTYLEWYLQKPGQSPQLLIYKVSNRFSGVPDRFSGSGSGTDFTLTISSVEAEDLGVYYCFQGSHVPWTFGGGTKLEIK
modifications: Heavy chain variable region; Light chain variable region
suppression of rHSP90α-induced invasiveness of PANC-1 cells (PANC-1 cells [1]): superior to Clone-2-hB, Clone-2-hC, and their parental Clone-2
serum HSP90α levels [2]: significant decreases
tumor desmoplasia [2]: significant decreases
tumor growth by weight on Day-41 [2]: indeed repressed
tumor growth kinetics [2]: totally suppressed
kinetics of the tumor growth [3]: potently suppressed
serum HSP90α levels [3]: significantly reduced
tumor desmoplasia (Masson trichrome) [3]: significantly prevented
tumor sizes (weights) on Day-30 [3]: significantly repressed
elevation of serum HSP90α levels [4, 6]: significantly suppressed
tumor volume [4, 6]: drastic tumor shrinkage upon HH01 treatment was observed immediately after 3 days
tumors on Day-42 [4, 6]: shrank significantly
CD4^+TNF-α^+ (effective T) cells [4, 7]: both increased
CD8^+TNF-α^+ (cytotoxic T) cells [4, 7]: both increased
F4/80^+Arginase1^+ (M2) cells [4, 7]: decrease
F4/80^+iNOS^+ (M1) cells [4, 7]: increase
CD4^+ and CD8^+ cell levels in tumor (immunohistochemistry) ([4]; tumor samples): effectively restored
M2-macrophages in tumor (CD163, CD204 immunohistochemistry) ([4]; tumor samples): M2-macrophage reduction
suppression of rHSP90α-induced spheroid formation of PANC-1 cells (PANC-1 cells [5]): most outstanding efficacy
